The target of assay [1] is purified wild type ZZ fragment p62 (122-175) of the ITC table (Fig. 3b) (human, UniProt Q13501 122-175). Put plainly: ITC.
Assay [2] has as its target N132Q ZZ fragment p62 (122-175) (Homo sapiens). The assay is described as follows: ITC.

Ends that are not written are not given here.

One may read the Kd as a measure of binding affinity in units of concentration. Low readings indicate a tighter complex, high ones a looser complex.

Sequence of N132Q ZZ fragment p62 (122-175) (Homo sapiens) (chain, as listed by the source N132Q): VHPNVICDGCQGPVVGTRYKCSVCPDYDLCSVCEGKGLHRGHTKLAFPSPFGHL

WIFS returned a dissociation constant Kd in assay [1] of 374 µM.

The molecule KIFS yielded a dissociation constant (Kd) in assay [1] of 51.8 µM. Compared with the last molecule, the Kd is about 7.2-fold lower.

Molecule HIFS gave a Kd in assay [1] of 300 µM.

Turning to RIFS (also: two Zn2+ ions bound) [RIFS tetrapeptide (Nt-Arg)], the Kd in assay [2] was 21.4 µM.

For the molecule YIFS (also: two Zn2+ ions bound) [YIFS tetrapeptide (Nt-Tyr)], the Kd in assay [2] is 143 µM.

For the origin of these results see paper PMC8038991 (2021).
